Results on 167 variants are retold here after the Human Domainome abundance scans (Beltran et al. 2025).

First the molecules themselves.
B1: Transcription factor SOX-4, residues 60 to 127; numbered along this chain, Q06945 (parent)
chain: KRPMNAFMVWSQIERRKIMEQSPDMHNAEISKRLGKRWKLLKDSDKIPFIREAERLRLKHMADYPDYK

± gives the uncertainty stated by the source.

Variants of B1 are the subject of the data set. Kind of data set: abundance fitness (aPCA) (normalised: wild type 0, dead -1); higher = more abundant; growth selection in yeast, the domain comes from the species named. The conditions noted are these: Homo sapiens.
V9P: the abundance fitness was -0.617 ± 0.21.

V9A: the abundance fitness was -0.473 ± 0.085.

V9R: the abundance fitness is -1 ± 0.14.

Turning to V9S, the abundance fitness is -0.803 ± 0.15.

As to V9M, the abundance fitness is -0.266 ± 0.13.

Turning to V9K, the abundance fitness was -0.978 ± 0.29.

V9L: the abundance fitness is 0.037 ± 0.046.

For the variant K59H, the abundance fitness was -0.108 ± 0.073.

With K59W, the abundance fitness is -0.369 ± 0.056.

K59E: the abundance fitness was -0.017 ± 0.046.

Consider K59S, for which the abundance fitness was -0.024 ± 0.039.

Turning to K59N, the abundance fitness is -0.118 ± 0.061.

Consider R55V, for which the abundance fitness is -0.248 ± 0.039.

In the case of R55Y, the abundance fitness was -0.474 ± 0.1.

Turning to R55T, the abundance fitness is -0.181 ± 0.067.

With R55I, the abundance fitness was -0.22 ± 0.06.

For W38N, the abundance fitness is -0.874 ± 0.094.

W38Y: the abundance fitness is -0.548 ± 0.089.

As for W38K, the abundance fitness is -0.708 ± 0.09.

As for W38G, the abundance fitness is -0.744 ± 0.05.

Turning to W38H, the abundance fitness is -0.548 ± 0.14.

In the case of D63K, the abundance fitness is -0.128 ± 0.06.

Consider D63C, for which the abundance fitness is -0.397 ± 0.063.

With D63F, the abundance fitness is -0.283 ± 0.05.

For the variant D63G, the abundance fitness was -0.142 ± 0.044.

As for D63Y, the abundance fitness is -0.233 ± 0.057.

Take D63H: the abundance fitness was -0.168 ± 0.057.

As to I50N, the abundance fitness is -0.284 ± 0.19.

Regarding I50S, the abundance fitness was -0.322 ± 0.086.

In the case of I50Q, the abundance fitness was -0.021 ± 0.1.

Regarding I50Y, the abundance fitness amounted to 0.041 ± 0.28.

Turning to I50A, the abundance fitness was -0.186 ± 0.1.

Regarding Q12D, the abundance fitness was 0.179 ± 0.12.

In the case of Q12G, the abundance fitness is -0.265 ± 0.05.

On to Q12T, for which the abundance fitness was -0.166 ± 0.079.

With K17D, the abundance fitness is -0.459 ± 0.12.

Regarding K17V, the abundance fitness was -0.318 ± 0.1.

On to K17Y, for which the abundance fitness is -0.421 ± 0.095.

K17Q: the abundance fitness was -0.092 ± 0.078.

As to K17L, the abundance fitness is -0.215 ± 0.052.

On to L58M, for which the abundance fitness is -0.043 ± 0.065.

L58Y: the abundance fitness was -0.286 ± 0.043.

As to L58N, the abundance fitness was -0.028 ± 0.046.

L58F: the abundance fitness was -0.084 ± 0.039.

Consider L58E, for which the abundance fitness worked out at 0.091 ± 0.058.

Take L58R: the abundance fitness worked out at 0.007 ± 0.04.

For the variant L58A, the abundance fitness was determined as 0.013 ± 0.05.

Consider M61V, for which the abundance fitness is -0.073 ± 0.072.

In the case of M61W, the abundance fitness was -0.224 ± 0.083.

For M61Q, the abundance fitness is 0.092 ± 0.079.

For the variant M61A, the abundance fitness is -0.061 ± 0.067.

As for I18S, the abundance fitness is -0.665 ± 0.13.

Regarding I18E, the abundance fitness is -0.63 ± 0.12.

On to Y67E, for which the abundance fitness came to 0.179 ± 0.083.

Regarding Y67K, the abundance fitness is 0.116 ± 0.11.

For the variant Y67V, the abundance fitness came to 0.159 ± 0.085.

As to Y67H, the abundance fitness is -0.301 ± 0.38.

As to Y67Q, the abundance fitness stood at 0.051 ± 0.15.

With Y67C, the abundance fitness is -0.04 ± 0.15.

For Y67I, the abundance fitness amounted to 0.11 ± 0.15.

As to I47W, the abundance fitness is -0.251 ± 0.045.

As to I47Q, the abundance fitness is -0.006 ± 0.074.

Turning to I47G, the abundance fitness was -0.231 ± 0.039.

In the case of I47V, the abundance fitness was -0.086 ± 0.037.

As for I47L, the abundance fitness was found to be 0.078 ± 0.038.

With I47H, the abundance fitness was -0.314 ± 0.051.

I47C: the abundance fitness is -0.546 ± 0.062.

In the case of I47A, the abundance fitness stood at 0.031 ± 0.063.

In the case of I47M, the abundance fitness is -0.047 ± 0.05.

On to E29I, for which the abundance fitness is -0.916 ± 0.19.

As to E29G, the abundance fitness was -0.628 ± 0.089.

Regarding E29P, the abundance fitness is -0.162 ± 0.15.

As for E29T, the abundance fitness was -0.348 ± 0.12.

On to E29R, for which the abundance fitness is -0.883 ± 0.1.

Consider E29Q, for which the abundance fitness is -0.367 ± 0.068.

In the case of S22W, the abundance fitness was determined as 0.016 ± 0.053.

Turning to S22P, the abundance fitness was -0.745 ± 0.18.

S22L: the abundance fitness was -0.458 ± 0.057.

Turning to S22K, the abundance fitness is -0.191 ± 0.049.

Regarding S22M, the abundance fitness is -0.276 ± 0.055.

On to D45Q, for which the abundance fitness was -0.097 ± 0.16.

D45K: the abundance fitness is -0.486 ± 0.33.

For D45G, the abundance fitness was -0.495 ± 0.1.

Consider D45A, for which the abundance fitness was -0.239 ± 0.071.

Turning to D45T, the abundance fitness was -0.576 ± 0.11.

On to D45H, for which the abundance fitness is -0.429 ± 0.32.

For D45Y, the abundance fitness was -0.361 ± 0.21.

Take G35S: the abundance fitness stood at 0.173 ± 0.035.

Regarding G35Q, the abundance fitness was 0.302 ± 0.2.

As for G35Y, the abundance fitness turned out to be 0.119 ± 0.05.

M8C: the abundance fitness is -0.278 ± 0.061.

With M8N, the abundance fitness is -0.242 ± 0.04.

In the case of M8T, the abundance fitness is -0.068 ± 0.058.

Turning to M8E, the abundance fitness came to 0.232 ± 0.073.

For the variant M8R, the abundance fitness was -0.176 ± 0.038.

On to M8F, for which the abundance fitness was -0.133 ± 0.041.

With M8H, the abundance fitness came to 0.042 ± 0.062.

For M8S, the abundance fitness is -0.072 ± 0.037.

In the case of M8P, the abundance fitness was -1.01 ± 0.29.

In the case of D66G, the abundance fitness was -0.08 ± 0.07.

D66Q: the abundance fitness was -0.254 ± 0.083.

On to D66T, for which the abundance fitness was -0.216 ± 0.069.

As to D66H, the abundance fitness is -0.141 ± 0.13.

On to L56A, for which the abundance fitness is -0.355 ± 0.073.

Take L56F: the abundance fitness is -0.543 ± 0.11.

In the case of L56P, the abundance fitness is -0.655 ± 0.1.

As to L56E, the abundance fitness is -0.201 ± 0.1.

Regarding L56I, the abundance fitness was -0.149 ± 0.093.

Consider L56S, for which the abundance fitness was -0.282 ± 0.049.

On to L56M, for which the abundance fitness came to 0.115 ± 0.14.

As for L56D, the abundance fitness is -0.385 ± 0.13.

A6N: the abundance fitness was -0.943 ± 0.074.

Regarding A6I, the abundance fitness is -0.794 ± 0.083.

As to A6R, the abundance fitness was -0.713 ± 0.054.

As to A6M, the abundance fitness is -1.01 ± 0.098.

As for A6T, the abundance fitness was -0.797 ± 0.091.

For the variant A6E, the abundance fitness is -0.656 ± 0.074.

As to A6C, the abundance fitness was -0.692 ± 0.087.

With A6W, the abundance fitness was -0.896 ± 0.1.

On to M19C, for which the abundance fitness is -0.175 ± 0.045.

With M19K, the abundance fitness stood at 0.007 ± 0.048.

In the case of M19W, the abundance fitness was -0.326 ± 0.068.

Consider M19H, for which the abundance fitness was -0.368 ± 0.072.

As for M19I, the abundance fitness was determined as 0.014 ± 0.045.

Turning to P23Y, the abundance fitness was -0.862 ± 0.091.

With P23E, the abundance fitness is -0.554 ± 0.065.

Take P23S: the abundance fitness was -0.47 ± 0.047.

For the variant P23T, the abundance fitness is -0.593 ± 0.07.

P23R: the abundance fitness is -0.669 ± 0.048.

Take D24F: the abundance fitness is -0.134 ± 0.043.

Regarding D24M, the abundance fitness was -0.214 ± 0.057.

For the variant D24S, the abundance fitness was -0.15 ± 0.04.

Consider A53S, for which the abundance fitness is -0.431 ± 0.055.

In the case of A53Q, the abundance fitness was -0.898 ± 0.17.

For the variant A53L, the abundance fitness is -0.856 ± 0.17.

For the variant A53E, the abundance fitness is -0.52 ± 0.084.

Take A53V: the abundance fitness is -0.787 ± 0.12.

Take L41P: the abundance fitness is -0.728 ± 0.21.

With L41W, the abundance fitness was -0.946 ± 0.14.

L41S: the abundance fitness was -0.779 ± 0.1.

Turning to L41F, the abundance fitness was -0.684 ± 0.2.

On to L41T, for which the abundance fitness was -0.788 ± 0.12.

For S11H, the abundance fitness was -0.703 ± 0.088.

As to S11W, the abundance fitness is -0.608 ± 0.089.

In the case of S11C, the abundance fitness is -0.206 ± 0.047.

As to S11I, the abundance fitness is -0.737 ± 0.079.

In the case of S11F, the abundance fitness is -0.217 ± 0.044.

For E20P, the abundance fitness was -0.524 ± 0.12.

E20N: the abundance fitness was -0.478 ± 0.2.

Take M25C: the abundance fitness is -0.258 ± 0.1.

For M25W, the abundance fitness was -0.672 ± 0.12.

For the variant M25K, the abundance fitness was -0.216 ± 0.082.

Regarding E54V, the abundance fitness is -0.696 ± 0.055.

Turning to E54F, the abundance fitness is -0.574 ± 0.056.

As to E54R, the abundance fitness is -0.469 ± 0.051.

For E54Y, the abundance fitness is -0.652 ± 0.058.

Consider Y64S, for which the abundance fitness is 0.063 ± 0.056.

For Y64W, the abundance fitness is -0.25 ± 0.077.

As to Y64G, the abundance fitness was -0.008 ± 0.073.

On to Y64L, for which the abundance fitness came out at 0.009 ± 0.046.

In the case of Y64A, the abundance fitness is -0.094 ± 0.093.

For Y64K, the abundance fitness was determined as 0.128 ± 0.095.

As to Y64C, the abundance fitness is -0.056 ± 0.2.

In the case of Y64N, the abundance fitness was 0.124 ± 0.12.

Turning to Y64Q, the abundance fitness was -0.112 ± 0.13.

Take P65I: the abundance fitness is -0.333 ± 0.15.

As for P65V, the abundance fitness is -0.097 ± 0.068.
